Laboratory results as given in the DeepSol protein solubility set.

Test: soluble on expression in E. coli; label from the status in PepcDB or PDB records

Sequence	soluble on expression in E. coli
MGSDKIHHHHHHMARQFVYFMQGLTKAYPTRKVLDNVHLSFYPDAKIGVLGVNGAGKSTLLKIMAGIDKEYTGEAWVAEGARVGYLEQEPQLDPALTVRENVMLGVAKQKAILDRYNELAMNYSEETADEMTALQDQIESAGLWDLDSKVDQAMDALRCPPDDADVTKLSGGERRRVALCKLLLDQPDLLLLDEPTNHLDAESVSWLESHLRNYPGAILIVTHDRYFLDNVTSWILELDRGRGIPYEGNYSSWLVQKQKRLLQEGREDAAHQKTLEREQEWIASSPKARQAKSKARYQRYEELLAKASEKQTQTAQIIIPVAERLGNNVVDFEHLTKGFGDKLLIDDLTFKLPPGGIVGVIGPNGAGKTTLFRMITGQEKPDQGTITVGETVHLGYVDQSRDSLDAKKTVWEEISGGNELILLGKKEVNSRGYCSAFNFKGGDQQKKVGSLSGGERNRVHLAKMLKSGANVLLLDEPTNDLDVDTLRALEEALEDFAGCAVIISHDRWFLDRIATHILAFEDDSHVEWFEGNFQDYEKDKMRRLGQDAIIPHRAKYKKLTR	not soluble
GSHMDKTFCVVVQNRIKEGYRRAGFSFHLGDNSLAAVSESQLAQLKADPRLVVQITETGSQEGGEGLSKEPAGSDEQKQLRADPPSTDLNTFTVEQLKAQLTERGITFKQSATKAELIALFAPADGEKSEA	soluble
MENLTVTGLVRLIGAGATMIYVVTDNERRTEQIATQAAARLKGAGSPYVWTCTEGFSRDGAVVEGIDDPVAAVGFALAQPGPLLFLFKDLPWFWGDNPYLIRALKDFAMRAKAKAIVVLGQQEGIPAALREEFVILQQGLPAMEEIKAFFEQARARDPQLAQACQERPGLLNDLVVAAQGLDLLDVERGMRGARAAGEAGGEGLVRSIFETKRAIIRTGGIMEFVANDVTPDQVGGMENLKQWMARREQAFGLEGISSGANLPKGVLMMGIAGCGKSLFVKAIAATWRLPLIRLDMAAVYDGSYGTPESSLRKAFRTAEAVAPCVLWIDEIEAGISTQGFKAEGGPASRILGSFLTWMQEKRAPVFVAATANAIEMLPAEIIRKGRFDEIFYIGLPETKGREEIFRIHLTRRKIGLSAFDVPLLAGSTKGFSGAEIEQAVQAAAFEALTGKRPMTQQDLMAAISRTVPLSVTMAEQIKKIEAWAFKRAVPA	soluble
MMKKALLIDDECWLRVQARDASADGRFVFAVRTTGVFCRPSCRSKRALRKNVRFFANAQQALDAGFRPCKRCQPDNARAQQRRLDKIACACRLLEQETPVTLAFLAQAVAMSPFHLHRLFKASTGMTPKGWQQAWRARRLREALAKGEPITAAIYRAGFPDSSSYYRHADQTLGMTAKQFRKGGDNVSVRYALTDWVYGRCLVAESERGICAILPGDSDDALLAELHTLFPSARHEPADALFQQRVRQVVAAINTRDVLLSLPLDIQGTAFQQQVWQALCAIPCGETVSYQQLAATIGKPTAVRAVASACGANKLAMVIPCHRVVRRDGALSGYRWGVRRKAQLLKREAQKEE	not soluble
MGSDKIHHHHHHMSTRQLLRNHYVQVDRSKKPYCFLLAKEPEYNDILNNYRIPLGEYQFKRTLFAREWLYKDVWHEMVSFAFCREPLSRCISAFFYLWEAEAQRRAWLPSFNGALNAHGYGLDYSFDQFLDAVVACRDSGSNFSPMGLHFSTHTATMWDDVTDSGGSILLSNIFRLEDLIHGINHVFSVCGVPDKAKPLLRDINTNETKRPFTPSRHHIAKVEDLYGKDFELYETYGRLF	not soluble
MDREALQHRVLITVSRSSLFRVVEGILEEGKVSSMASSITEYLLNNRYSRERALEHISVYLESELEKSGIDLDDGVDGISLAILFVYEELLENKSEFFSKIQEKSGHALHPPSSDSEE	not soluble
AINQANRSVCITTPYFVPSADLLATLKMTAQRGIKVDIIIPKKNDSLMVQWASRAFYGELLEAGVQIHEFDGGLLHTKSVVIDQQFCLVGTVNLDMRSLWLNFELTLAVDDLEFTQQMHWLQQQYIDQSHSVVYAEWEQRPWYNRFLERVFYLFNPLL	not soluble
MANIVITTHWTDGDVLPFIKIGSELRKRGHRVTLITHCYYKNMAKSQGLDFEAWDSPEQHRQMLEDMKEELDPLRNPCALERYKKKYESIEVRLREFKKVIAHCNTTDTVLVAKNRSSVAAYLAAEKLNIPLVCVFMAPSEMLSMVSYEMMLGKLLANELNLLRKELNLAPVKSWLAWQSSPKRQIALWPDWFAEPIEEWPAEVINVGFPLSYNERFDNLPPDLMEDLLGDEPPVVITGGTSKTIRPEFYPLCVETCRLSGRKGILVTRYEELLPKELPDKVKWFRELPLNKIFPYTSAVIHHGGMGTLSGAIAAGVPQLVLPYYLDRPYNALCLKKLGIAEYLPPIKWKPEIMVDALQKITASSFRERCKLFSKKVSLQNTMNEICCLIEETVNNEEFLLKDISLLQTT	not soluble
MKCPFCAHPDTRVADSRLMEERNAVRRRRHCPNCGKRFGTLETAELKMPAVIGPDKKRSPFNAQRLRNDLTAAARKSALTPEQIDETVRLTEHRLYTSGQRDIPSAALADMVLKELLRQDTEAAVRFAALHKRFDNPADFASWLAQAVKTGGKA	not soluble
MSLAADYTEQDAMRVQAVKTYIDNVLQEGRSQIKTTPLLADGINTTTRKPVEWIYPDGRTATISNFANQQNFLRALTAMSVVTEDQRYQLEAVRITRYFMDNFIADNGLFYWGGHRFVNLDTLELEGPQNKNSVHELKNHYPYYPFLYHVDPHATERYIKAFWQAHVEDWQSLDMGRHGSYSKNYDDKVFHRPIPASLVDQSKLPIMPETKGLTFINAGSDLIYAAYQLDWLAPSANAQGSAAWGQYLMTQYKLAKHPKTGAPVYQFTSPKKREWPPQSDKDTNSKYGDRAARQFGPELGNIAREGNVLFKSNDKSIVFNNALIELHLAEQRNDAAIREQVVDALLNFYRLAYNPENGTIKPIFSDGTSIEGIPLARDGYYGPKGRVFNAHKPKTEEYLLPILRAYRLQADPELWQLAANMTHHYGWGSLGNDAKAKPTLNMQLSSVSPMTLFSAIELYQITQQPEYLEFARAAADKLVEKRFVRGYFLANPRYLNASIDAIEPLALLTLDATLKGKTAQVAPYLSGSGYIHGEFAGKENAYDTNEIYKQTREGHHHHHH	soluble
MSLRFNVLKYIRTTKANIQTIAMPLTTKPLSLKINAALFDVDGTIIISQPAIAAFWRDFGKDKPYFDAEHVIHISHGWRTYDAIAKFAPDFADEEYVNKLEGEIPEKYGEHSIEVPGAVKLCNALNALPKEKWAVATSGTRDMAKKWFDILKIKRPEYFITANDVKQGKPHPEPYLKGRNGLGFPINEQDPSKSKVVVFEDAPAGIAAGKAAGCKIVGIATTFDLDFLKEKGCDIIVKNHESIRVGEYNAETDEVELIFDDYLYAKDDLLKWEGHHHHHH	not soluble
MTEEFNESMINDIKEGDKVTGEVQQVEDKQVVVHINGGKFNGIIPISQLSTHHIDSPSEVVKEGDEVEAYVTKVEFDEENETGAYILSRRQLETEKSYSYLQEKLDNNEIIEAKVTEVVKGGLVVDVGQRGFVPASLISTDFIEDFSVFDGQTIRIKVEELDPENNRVILSRKAVEQEENDAKKDQLLQSLNEGDVIHGKVARLTQFGAFIDIGGVDGLVHVSELSHEHVQTPEEVVSIGQDVKVKIKSIDRDTERISLSIKDTLPTPFENIKGQFHENDVIEGVVVRLANFGAFVEIAPGVQGLVHISEIAHKHIGTPGEVLEPGQQVNVKILGIDEENERVSLSIKATLPNEDVVESDPSTTKAYLENEEEDNPTIGDMIGDKLKNLKLLEHHHHHH	soluble
DSDDRVTPPAEPLDRMPDPYRPSYGRAETVVNNYIRKWQQVYSHRDGRKQQMTEEQREWLSYGCVGVTWVNSGQYPTNRLAFASFDEDRFKNELKNGRPRSGETRAEFEGRVAKESFDEEKGFQRAREVASVMNRALENAHDESAYLDNLKKELANGNDALRNEDARSPFYSALRNTPSFKERNGGNHDPSRMKAVIYSKHFWSGQDRSSSADKRKYGDPDAFRPAPGTGLVDMSRDRNIPRSPTSPGEGFVNFDYGWFGAQTEADADKTVWTHGNHYHAPNGSLGAMHVYESKFRNWSEGYSDFDRGAYVITFIPKSWNTAPDKVKQGWP	soluble
SNAAQISDGKQYITLDKPVAGEPQVLEFFSFYCPHCYQFEEVLHVSDNVKKKLPEGTKMTKYHVEFLGPLGKELTQAWAVAMALGVEDKVTVPLFEAVQKTQTVQSAADIRKVFVDAGVKGEDYDAAWNSFVVKSLVAQQEKAAADLQLQGVPAMFVNGKYQINPQGMDTSSMDVFVQQYADTVKYLVDKK	soluble
PRKRFIYLERKISPAMASYIKELKIPGIHLRKESKRFYPTGEISAHLIGFTNVDDKGIEGIERMYDDLLTGTGGAKRFRKDAKGRKIEIISVEEPEQAQDITLSID	not soluble
MGSDKIHHHHHHMKNIYLFIVSLFFFYTGCDTQQTKYPFSVETVLAKAGNNRKELEKALDYFYKQGDSIKIKAIEFLVAHMDIHYSETYYWKTREGKRVDFSEFDYANLETAVKAIDSMRKKYGSLDFQDTIIYDVNSLTGKYLINNVNHAVDTWRLSEYKDIPFNDFCEYILPYRVTVEPVTEWRKEYCKRYHWLTDSLQNKPLENVLDYAAIDYKDWFTFTYGSETRNEPLSRLSAQQLLFRKKGACEDIAALETFIFRSQGIPAAYISVPLWATSAGAHFSNTVFDTKMKPVKLDVTTHAVVDHPLDREPSKVIRYTYSSQPGTLASKEKEECIPTGFLQKTNYIDVTHEYWETSDVTIPLFNDTTHIIYACMFSMGRWNAEWWGERMENSVTFHNMPRGVVILPMIYKEHQLIPIGYPIVNGYNHQLYLVPDLLHTMTVEIEEQDRYLRFRPDKKYELFYWDNAWISLGTQVATMDADCLQFNQVPQNVLMLLVPEYSERKERPFIIMPDGTRYWW	not soluble
MVRIYTLTLAPSLDSATITPQIYPEGKLRCSAPVFEPGGGGINVARAIAHLGGTATAIFPAGGATGEHLVALLADENVPVSTVDAKDWTRQNLHVHVESSGEQYRFVMPGATLDDDEFRQLEEQVLEIESGAILVISGSLPPGVKVEKLTQLISAAQKQGIRCIIDSSGDALTAALALGDIELVKPNLKELSALVNRDLTQPDDVRKAAQELVQSGKARRVVVSLGPQGALGIDSENCIQVVPPPVKSQSTVGAGDSMVGAMTLKLAQDASLEEMVRFGVAAGSAATLNQGTRLCSRDDTQKIYAYLSAQ	not soluble
GAMGSGIPMEACPHIRYAFQNDKLLLQQASVGRLTLVNKTTILLRPMKTTTVDLGLYARPPEGHGLMLWGSTSRPVTSHVGIIDPGYTGELRLILQNQRRYNSTLRPSELKIHLAAFRYATPQMEEDKGPINHPQYPGNVGLDVSLPKDLALFPHQTVSVTLTVPPPSIPHHRPTIFGRSGLAMQGILVKPCRWRRGGVDVSLTNFSDQTVFLNKYRRFCQLVYLHKHHLTSFYSPHSDAGVLGPRSLFRWASCTFEEVPSLAMGDSGLSEALEGRQGRGFGSSGQ	soluble
ETEQSVDLETVSVVGKSRPRATSGLLHTSTASDKIISGDTLRQKAVNLGDALDGVPGIHASQYGGGASAPVIRGQTGRRIKVLNHHGETGDMADFSPDHAIMVDTALSQQVEILR	not soluble
MLSSSPASCTSPSPGTDNPDKKVHWASEKRRRASSTDSESKTHLDISKLPRSRRPSRLTVKYDRGHLQRWLEMEQWVDAQVQELFQGQEESSEPEIDLEALMDLSTEDQRTQLEAILQDCPGNREPFISELLSQLKRLRRLSRPSK	soluble
